Results: patent US6355790, “Inhibition of HIV replication using a mutated transfer RNA primer” (University of Rochester)

Tests used:
[1] = target: T1, HIV-1 reverse transcriptase (p66/p51) (Human immunodeficiency virus 1, UniProt P04585;P04585 P04585:588-1147,P04585:588-1027); assay: EMSA; complex formed; competed by 100-fold excess of itself; 6 mM MgCl2, 60 mM NaCl, 40 mM Tris-HCl pH 8.3, 10 mM DTT, 37 C; details: Genetics Institute (Cambridge, MA) for polymerase assays; label: 32P (CTP, internal); tRNA cloverleaf
[2] = target: MoMuLV reverse transcriptase (Moloney murine leukemia virus, UniProt P03355 P03355:660-1330); assay: EMSA; did not bind MoMuLV RT
[3] = target: T1, HIV-1 reverse transcriptase (p66/p51); assay: EMSA; affinity similar to tRNALys3; 100-fold excess competes effectively; 6 mM MgCl2, 60 mM NaCl, pH 8.3, 37 C; details: Genetics Institute (Cambridge, MA) for polymerase assays; tRNA cloverleaf, acceptor stem restored

B1: tRNALys3 (ssRNA)
RNA: GCCCGGAUAGCUCAGUCGGUAGAGCAUCAGACUUUUAAUCUGAGGGUCCAGGGUUCAAGUCCCUGUUCGGGCGCCA
B1: binds [1].

B2: tRNAtarD (ssRNA)
RNA: UAGACCAUAGCUCAGUCGGUAGAGCAUCAGACUUUUAAUCUGAGGGUCCAGGGUUCAAGUCCCUGUGGUCUAACCA
B2: no binding [2]; binds [3].
